From patent US20220281942A1 (published 2022)

Molecular target: T1, CCND1 (G1/S-specific cyclin-D1) peptide on HLA-DPA1*01:03 / HLA-DPB1*04:01 (human)
T1 peptide: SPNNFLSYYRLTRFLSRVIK
Test: multimer staining

binding result: recognises
B1: 03-CCND1219-238 (TCR, V domains shown)
Valpha: KDQVFQPSTVASSEGAVVEIFCNHSVSNAYNFFWYLHFPGCAPRLLVKGSKPSQQGRYNMTYERFSSSLLILQVREADAAVYYCAVCTLYNFNKFYFGSGTKLNVKP
Vbeta: GVTQTPKFQVLKTGQSMTLQCAQDMNHEYMSWYRQDPGMGLRLIHYSVGAGITDQGEVPNGYNVSRSTTEDFPLRLLSAAPSQTSVYFCASLTDNNEQFFGPGTRLTVL
